# Measurements reported in article PMC10641069, “Intra- and inter-molecular regulation by intrinsically-disordered regions governs PUF protein RNA binding” (Nature Communications, 2023).
# Substitutions are numbered along the chain they refer to. Read-outs that look alike come from different tables or passages of the source.
# B1: gld-1 FBEa RNA (EMSA) (ssRNA)
# RNA: AUCAUGUGCCAUAC
# What was measured:
# [1] = target: T1, FBF-2 RBD + CT (Caenorhabditis elegans, UniProt Q09312); experiment: ITC, peptide into FBF-2 RBD + CT, no RNA; type: binding, C. elegans; conditions: 20 °C, pH 7.4
# T1 construct: A cDNA fragment encoding C. elegans FBF-2 RBD + CT (residues 164-632) was cloned into the pSMT3 vector; His6-SUMO (N, cleaved yes); made in house; host or cells: E. coli BL21-CodonPlus (DE3)-RIL
# T1 sequence (Q09312 whole entry, looked up): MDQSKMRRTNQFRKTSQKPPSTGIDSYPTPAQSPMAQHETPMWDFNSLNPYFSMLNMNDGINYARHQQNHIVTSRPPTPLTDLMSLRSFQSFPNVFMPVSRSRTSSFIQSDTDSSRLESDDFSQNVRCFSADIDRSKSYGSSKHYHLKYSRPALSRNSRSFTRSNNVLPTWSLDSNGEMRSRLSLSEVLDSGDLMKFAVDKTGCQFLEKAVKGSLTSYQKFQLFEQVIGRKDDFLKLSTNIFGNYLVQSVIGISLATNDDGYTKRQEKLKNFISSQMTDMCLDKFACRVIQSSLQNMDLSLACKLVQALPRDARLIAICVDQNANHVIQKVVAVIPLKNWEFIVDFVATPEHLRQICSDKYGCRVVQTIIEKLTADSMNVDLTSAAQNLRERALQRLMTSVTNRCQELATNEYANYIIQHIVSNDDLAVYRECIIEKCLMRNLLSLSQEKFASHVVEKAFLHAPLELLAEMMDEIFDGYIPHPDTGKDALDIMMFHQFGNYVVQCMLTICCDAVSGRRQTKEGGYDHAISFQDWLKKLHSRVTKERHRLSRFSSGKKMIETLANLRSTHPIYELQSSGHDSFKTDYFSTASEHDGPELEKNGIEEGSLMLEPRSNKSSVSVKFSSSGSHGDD
# [2] = target: T2, FBF-2 RBD + CT L610A (Caenorhabditis elegans, UniProt Q09312, L610A); type: binding, C. elegans; conditions: pH 7.4
# T2 construct: A cDNA fragment encoding C. elegans FBF-2 RBD + CT (residues 164-632) was cloned into the pSMT3 vector; His6-SUMO (N, cleaved yes); made in house; host or cells: E. coli BL21-CodonPlus (DE3)-RIL (as for wild type)
# [3] = target: T3, FBF-2 RBD+CT L610A;LST-1 B peptide (Caenorhabditis elegans;Caenorhabditis …, UniProt Q09312;P91820 164-632;67-98, L610A|); experiment: EMSA; 50 uM LST-1 B; EMSA: FBF-2 in 20 mM HEPES pH 7.4, 150 mM NaCl, 0.5 mM TCEP mixed 1:1 with 5 nM final RNA in 10 mM HEPES pH 7.4, 0.01% Tween 20, 0.1 mg/ml BSA, 0.1 mg/ml yeast; conditions: protein: recombinant;recombinant; tags: none (His6-SUMO removed with Ulp1);none (His6-SUMO removed with Ulp1); copies: 1;1; label: 3'-Cy5
# T3 sequence 1: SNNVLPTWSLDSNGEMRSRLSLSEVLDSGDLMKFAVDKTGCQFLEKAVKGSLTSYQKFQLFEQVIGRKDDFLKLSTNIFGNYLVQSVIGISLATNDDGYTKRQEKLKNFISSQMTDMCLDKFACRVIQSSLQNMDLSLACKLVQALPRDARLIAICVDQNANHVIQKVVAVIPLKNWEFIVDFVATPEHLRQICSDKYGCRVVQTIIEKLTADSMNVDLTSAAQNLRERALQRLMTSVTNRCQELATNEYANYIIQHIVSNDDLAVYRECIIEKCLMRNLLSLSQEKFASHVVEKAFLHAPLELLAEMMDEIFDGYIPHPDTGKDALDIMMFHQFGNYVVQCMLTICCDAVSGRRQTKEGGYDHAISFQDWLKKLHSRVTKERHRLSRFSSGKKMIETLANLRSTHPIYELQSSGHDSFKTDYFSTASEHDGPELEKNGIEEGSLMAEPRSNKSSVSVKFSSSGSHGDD
# T3 sequence 2: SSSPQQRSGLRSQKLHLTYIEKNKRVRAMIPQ
# [4] = target: T4, FBF-2 RBD+CT;LST-1 B peptide (Caenorhabditis elegans;Caenorhabditis …, UniProt Q09312;P91820 164-632;67-98, |); experiment: as above; conditions: protein: recombinant;recombinant; tags: none (His6-SUMO removed with Ulp1);none (His6-SUMO removed with Ulp1); copies: 1;1; label: 3'-Cy5
# T4 sequence 1: T3 sequence 1 with A447L
# T4 sequence 2: T3 sequence 2
# [5] = target: T5, FBF-2 RBD+CT;LST-1 A peptide (Caenorhabditis elegans;Caenorhabditis …, UniProt Q09312;P91820 164-632;19-50, |); experiment: EMSA; 150 uM LST-1 A; EMSA: FBF-2 in 20 mM HEPES pH 7.4, 150 mM NaCl, 0.5 mM TCEP mixed 1:1 with 5 nM final RNA in 10 mM HEPES pH 7.4, 0.01% Tween 20, 0.1 mg/ml BSA, 0.1 mg/ml yeast; conditions: protein: recombinant;recombinant; tags: none (His6-SUMO removed with Ulp1);none (His6-SUMO removed with Ulp1); copies: 1;1; label: 3'-Cy5
# T5 sequence 1: T3 sequence 1 with A447L
# T5 sequence 2: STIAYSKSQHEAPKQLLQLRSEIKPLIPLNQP
molecule,measurement,setting,value
"LST-1 B: LST-1 B peptide, residues 67–98, expressed in E. coli (SSSPQQRSGLRSQKLHLTYIEKNKRVRAMIPQ; left off: His6-SUMO, N-terminal, cleaved)",-T∆S,[1]; replicate 1,2.08 kcal/mol
same,∆G,[1]; replicate 1,-7.62 kcal/mol
same,∆H,[1]; replicate 1,-9.7 kcal/mol
same,-T∆S,[1]; replicate 2,2.27 kcal/mol
same,∆G,[1]; replicate 2,-7.36 kcal/mol
same,∆H,[1]; replicate 2,-9.61 kcal/mol
same,∆G,[2],-9.85 kcal/mol
same,-T∆S,"[2]; replicate 1, 20 °C",6 kcal/mol
same,∆G,"[2]; replicate 1, 20 °C",-9.56 kcal/mol
same,∆H,"[2]; replicate 1, 20 °C",-15.5 kcal/mol
same,-T∆S,"[2]; replicate 2, 20 °C",6.98 kcal/mol
same,∆H,"[2]; replicate 2, 20 °C",-16.8 kcal/mol
B1,Kd,[3],82 ± 18 nM
same,Kd,[4],68 ± 21 nM
same,Kd,[5],114 ± 10 nM
